# Article PMC8618880, “Discovery of GOT1 Inhibitors from a Marine-Derived Aspergillus terreus That Act against Pancreatic Ductal Adenocarcinoma” (Marine Drugs, 2021)
# B1: glutamic oxaloacetate transaminase 1 (GOT1) (enzyme, human)
# chain: PPSVFAEVPQAQPVLVFKLTADFREDPDPRKVNLGVGAYRTDDCHPWVLPVVKKVEQKIANDNSLNHEYLPILGLAEFRSCASRLALGDDSPALKEKRVGGVQSLGGTGALRIGADFLARWYNGTNNKNTPVYVSSPTWENHNAVFSAAGFKDIRSYRYWDAEKRGLDLQGFLNDLENAPEFSIVVLHACAHNPTGIDPTPEQWKQIASVMKHRFLFPFFDSAYQGFASGNLERDAWAIRYFVSEGFEFFCAQSFSKNFGLYNERVGNLTVVGKEPESILQVLSQMEKIVRITWSNPPAQGARIVASTLSNPELFEEWTGNVKTMADRILTMRSELRARLEALKTPGTWNHITDQIGMFSFTGLNPKQVEYLVNEKHIYLLPSGRINVSGLTTKNLDYVATSIHEAVTKIQ
# modifications: in the crystal: C17 atom of AH covalently linked to the N atom of Lys259 in chain A; PLP in chain B
# notes: GOT1, expression construct pET26b-got1; Domains described in the structure span residues 17-411; also called WT-GOT1; glutamic-oxaloacetic transaminase 1; source: E. coli BL21 (DE3), purified (HisTrap FF, Resource Q, Superdex200 Increase)
# Target: the molecule itself
# Experiment: crystal structure; GOT1 (16 mg/mL) mixed with 40 uM AH, sitting-drop vapor diffusion, 18 °C, 0.1 M HEPES pH 7.5, 12% w/v PEG 3350; 2.6 Å; two subunits (chains A and B) form the dimer
protein,measurement,value
B1,binding result,binds
